B1: ADP-ribosylation factor-like protein 6 (Homo sapiens), Q9H0F7 (parent)
chain: MGLLDRLSVLLGLKKKEVHVLCLGLDNSGKTTIINKLKPSNAQSQNILPTIGFSIEKFKSSSLSFTVFDMSGQGRYRNLWEHYYKEGQAIIFVIDSSDRLRMVVAKEELDTLLNHPDIKHRRIPILFFANKMDLRDAVTSVKVSQLLCLENIKDKPWHICASDAIKGEGLQEGVDWLQDQIQTVKT
partner: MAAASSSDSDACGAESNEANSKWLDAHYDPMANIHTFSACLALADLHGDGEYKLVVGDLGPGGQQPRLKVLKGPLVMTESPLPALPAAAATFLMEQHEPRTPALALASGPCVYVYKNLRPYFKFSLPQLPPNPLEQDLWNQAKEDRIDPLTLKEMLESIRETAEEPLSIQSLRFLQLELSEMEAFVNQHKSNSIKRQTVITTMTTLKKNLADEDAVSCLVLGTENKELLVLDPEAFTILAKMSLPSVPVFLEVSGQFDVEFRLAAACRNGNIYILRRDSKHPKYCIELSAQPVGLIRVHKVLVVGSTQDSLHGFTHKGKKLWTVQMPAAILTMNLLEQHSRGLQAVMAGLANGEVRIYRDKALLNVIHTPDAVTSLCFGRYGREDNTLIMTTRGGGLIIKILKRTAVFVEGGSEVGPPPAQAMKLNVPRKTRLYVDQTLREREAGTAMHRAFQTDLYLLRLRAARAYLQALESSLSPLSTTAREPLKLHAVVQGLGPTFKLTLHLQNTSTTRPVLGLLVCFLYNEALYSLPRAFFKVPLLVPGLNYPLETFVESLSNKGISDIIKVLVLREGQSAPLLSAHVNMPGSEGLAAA
B2: Somatostatin receptor type 3 (Mus musculus), P30935 (parent)
chain: MATVTYPSSEPTTLDPGNASSTWPLDTTLGNTSAGASLTGLAVSGILISLVYLVVCVVGLLGNSLVIYVVLRHTSSPSVTSVYILNLALADELFMLGLPFLAAQNALSYWPFGSLMCRLVMAVDGINQFTSIFCLTVMSVDRYLAVVHPTRSARWRTAPVARTVSAAVWVASAVVVLPVVVFSGVPRGMSTCHMQWPEPAAAWRTAFIIYTAALGFFGPLLVICLCYLLIVVKVRSTTRRVRAPSCQWVQAPACQRRRRSERRVTRMVVAVVALFVLCWMPFYLLNIVNVVCPLPEEPAFFGLYFLVVALPYANSCANPILYGFLSYRFKQGFRRILLRPSRRIRSQEPGSGPPEKTEEEEDEEEEERREEEERRMQRGQEMNGRLSQIAQAGTSGQQPRPCTGTAKEQQLLPQEATAGDKASTLSHL
partner: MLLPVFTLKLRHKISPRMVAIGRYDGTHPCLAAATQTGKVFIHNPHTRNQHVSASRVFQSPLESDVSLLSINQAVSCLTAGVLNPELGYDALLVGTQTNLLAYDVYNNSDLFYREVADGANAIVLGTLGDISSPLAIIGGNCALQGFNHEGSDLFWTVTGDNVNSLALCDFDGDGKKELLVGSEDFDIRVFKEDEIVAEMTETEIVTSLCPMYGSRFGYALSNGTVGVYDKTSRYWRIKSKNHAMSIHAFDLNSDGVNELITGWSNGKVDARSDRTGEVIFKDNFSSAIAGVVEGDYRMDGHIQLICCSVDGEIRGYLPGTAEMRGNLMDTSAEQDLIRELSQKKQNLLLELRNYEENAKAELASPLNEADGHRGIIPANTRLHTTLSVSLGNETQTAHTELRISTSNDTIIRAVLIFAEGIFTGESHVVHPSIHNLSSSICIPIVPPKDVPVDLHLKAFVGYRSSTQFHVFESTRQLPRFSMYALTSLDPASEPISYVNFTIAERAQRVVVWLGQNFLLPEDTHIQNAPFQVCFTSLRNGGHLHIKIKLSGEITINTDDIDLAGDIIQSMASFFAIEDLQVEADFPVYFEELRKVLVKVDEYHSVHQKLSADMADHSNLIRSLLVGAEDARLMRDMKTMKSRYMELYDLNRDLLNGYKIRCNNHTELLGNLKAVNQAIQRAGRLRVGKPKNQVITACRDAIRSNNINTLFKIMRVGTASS

Variants of: B1
Details: with bbs1_human BBS1, Q8NFJ9

Variant | effect of a mutation on the interaction
MGLLDRLSVLLGLKKKEVHVLCLGLDNSGKTTIINKLKPSNAQSQNILPTIGFSIEKFKSSSLSFTVFDMSGLGRYRNLWEHYYKEGQAIIFVIDSSDRLRMVVAKEELDTLLNHPDIKHRRIPILFFANKMDLRDAVTSVKVSQLLCLENIKDKPWHICASDAIKGEGLQEGVDWLQDQIQTVKT [Q73L] | increasing interaction

Variants of: B2
Details: with bbs2_human BBS2, Q9BXC9

Variant | effect of a mutation on the interaction
MATVTYPSSEPTTLDPGNASSTWPLDTTLGNTSAGASLTGLAVSGILISLVYLVVCVVGLLGNSLVIYVVLRHTSSPSVTSVYILNLALADELFMLGLPFLAAQNALSYWPFGSLMCRLVMAVDGINQFTSIFCLTVMSVDRYLAVVHPTRSARWRTAPVARTVSAAVWVASAVVVLPVVVFSGVPRGMSTCHMQWPEPAAAWRTAFIIYTAALGFFGPLLVICLCYLLIVVKVRSTTRRVRAASCAWVQAPACQRRRRSERRVTRMVVAVVALFVLCWMPFYLLNIVNVVCPLPEEPAFFGLYFLVVALPYANSCANPILYGFLSYRFKQGFRRILLRPSRRIRSQEPGSGPPEKTEEEEDEEEEERREEEERRMQRGQEMNGRLSQIAQAGTSGQQPRPCTGTAKEQQLLPQEATAGDKASTLSHL [P244A;Q247A] | increasing interaction
MATVTYPSSEPTTLDPGNASSTWPLDTTLGNTSAGASLTGLAVSGILISLVYLVVCVVGLLGNSLVIYVVLRHTSSPSVTSVYILNLALADELFMLGLPFLAAQNALSYWPFGSLMCRLVMAVDGINQFTSIFCLTVMSVDRYLAVVHPTRSARWRTAPVARTVSAAVWVASAVVVLPVVVFSGVPRGMSTCHMQWPEPAAAWRTAFIIYTAALGFFGPLLVICLCYLLIVVKVRSTTRRVRAPSAQWVQAPACQRRRRSERRVTRMVVAVVALFVLCWMPFYLLNIVNVVCPLPEEPAFFGLYFLVVALPYANSCANPILYGFLSYRFKQGFRRILLRPSRRIRSQEPGSGPPEKTEEEEDEEEEERREEEERRMQRGQEMNGRLSQIAQAGTSGQQPRPCTGTAKEQQLLPQEATAGDKASTLSHL [C246A] | disrupting interaction
MATVTYPSSEPTTLDPGNASSTWPLDTTLGNTSAGASLTGLAVSGILISLVYLVVCVVGLLGNSLVIYVVLRHTSSPSVTSVYILNLALADELFMLGLPFLAAQNALSYWPFGSLMCRLVMAVDGINQFTSIFCLTVMSVDRYLAVVHPTRSARWRTAPVARTVSAAVWVASAVVVLPVVVFSGVPRGMSTCHMQWPEPAAAWRTAFIIYTAALGFFGPLLVICLCYLLIVVKVRSTTRRVRFPSCFWVQAPACQRRRRSERRVTRMVVAVVALFVLCWMPFYLLNIVNVVCPLPEEPAFFGLYFLVVALPYANSCANPILYGFLSYRFKQGFRRILLRPSRRIRSQEPGSGPPEKTEEEEDEEEEERREEEERRMQRGQEMNGRLSQIAQAGTSGQQPRPCTGTAKEQQLLPQEATAGDKASTLSHL [A243F;Q247F] | increasing interaction
MATVTYPSSEPTTLDPGNASSTWPLDTTLGNTSAGASLTGLAVSGILISLVYLVVCVVGLLGNSLVIYVVLRHTSSPSVTSVYILNLALADELFMLGLPFLAAQNALSYWPFGSLMCRLVMAVDGINQFTSIFCLTVMSVDRYLAVVHPTRSARWRTAPVARTVSAAVWVASAVVVLPVVVFSGVPRGMSTCHMQWPEPAAAWRTAFIIYTAALGFFGPLLVICLCYLLIVVKVRSTTRRVRAPSAAWVQAPACQRRRRSERRVTRMVVAVVALFVLCWMPFYLLNIVNVVCPLPEEPAFFGLYFLVVALPYANSCANPILYGFLSYRFKQGFRRILLRPSRRIRSQEPGSGPPEKTEEEEDEEEEERREEEERRMQRGQEMNGRLSQIAQAGTSGQQPRPCTGTAKEQQLLPQEATAGDKASTLSHL [C246A;Q247A] | decreasing interaction
MATVTYPSSEPTTLDPGNASSTWPLDTTLGNTSAGASLTGLAVSGILISLVYLVVCVVGLLGNSLVIYVVLRHTSSPSVTSVYILNLALADELFMLGLPFLAAQNALSYWPFGSLMCRLVMAVDGINQFTSIFCLTVMSVDRYLAVVHPTRSARWRTAPVARTVSAAVWVASAVVVLPVVVFSGVPRGMSTCHMQWPEPAAAWRTAFIIYTAALGFFGPLLVICLCYLLIVVKVRSTTRRVRAPSCAWVQAPACQRRRRSERRVTRMVVAVVALFVLCWMPFYLLNIVNVVCPLPEEPAFFGLYFLVVALPYANSCANPILYGFLSYRFKQGFRRILLRPSRRIRSQEPGSGPPEKTEEEEDEEEEERREEEERRMQRGQEMNGRLSQIAQAGTSGQQPRPCTGTAKEQQLLPQEATAGDKASTLSHL [Q247A] | increasing interaction

From IntAct's records for PubMed 20603001
